Results published in publication PMC6680903 (Molecules, 2019).
One block for each binder: values may come before it.

Columns and labels:
[1] = biological target: T1, β2-Microglobulin (Homo sapiens, UniProt P61769); experiment: SPR; Biacore T200; β2M immobilised on a CM5 chip to 150 RU; VHH samples after the modification procedure (NHS-Fluo:VHH 0, 1, 5 or 20; 2 h at 4 °C, ultrafiltration) in 2-fold serial dilution, 30 μL/min, HBS-EP+, 25 °C; 1:1 model with drift and RI2; conditions: both partners purified
T1 construct: human β2-microglobulin; Amine-coupled to a CM5 chip (150 RU); also called antigen β2M; source: expressed and purified as previously described [27]

[2] = biological target: T1, β2-Microglobulin; experiment: SPR; Biacore T200; β2M immobilised on a CM5 chip to 150 RU; VHH samples 'Origin' (no treatment) in 2-fold serial dilution, 30 μL/min, HBS-EP+, 25 °C; 1:1 model with drift and RI2; conditions: both partners purified
[3] = biological target: T2, β2-Microglobulin (β2M) (Homo sapiens, UniProt P61769); experiment: SPR; Biacore T200; β2M immobilized on a CM5 chip to 150 RU; 2-fold serial diluted VHH at 30 μL/min in HBS-EP+; 25 °C; 1:1 binding model; VHH samples after incubation with NHS-Fluo at molar ratio 0 (negative control), 1, 5 or 20 and ultrafiltration; conditions: both partners purified
T2 construct: β2-microglobulin, human (the title says anti-human β2-microglobulin VHHs); Probably the mature protein without the signal peptide (surmised); also called antigen β2M; human β2-microglobulin; source: expressed and purified as previously described [27]

[4] = biological target: T1, β2-Microglobulin; experiment: SPR; Biacore T200; β2M immobilised on a CM5 chip to 150 RU; VHH samples after the modification procedure (NHS-Fluo:VHH 0, 1, 5 or 20; 2 h at 4 °C, ultrafiltration) in 2-fold serial dilution, 30 μL/min, HBS-EP+, 25 °C; 1:1 model with drift and RI2
[5] = biological target: T1, β2-Microglobulin; experiment: as above; conditions: both partners purified; remark: listed apart in the source
[6] = biological target: T1, β2-Microglobulin; experiment: SPR; Biacore T200; β2M immobilised on a CM5 chip to 150 RU; VHH samples 'Origin' (no treatment) in 2-fold serial dilution, 30 μL/min, HBS-EP+, 25 °C; 1:1 model with drift and RI2; conditions: both partners purified; remark: listed apart in the source
[7] = biological target: T3, BSA (Bos taurus, UniProt P02769); experiment: laser scanning confocal fluorescence imaging of protein-coated beads; β2M or BSA coupled to CNBr-activated Sepharose 4 Fast Flow beads; incubated with labeled NB-1 (10 μg/mL in PBS) 5 min at room temperature; washed five times with PBS; FV1000 microscope; conditions: both partners purified
T3 construct: BSA (bovine serum albumin); also called negative control - BSA

[8] = biological target: T2, β2-Microglobulin (β2M); experiment: SPR; Biacore T200; β2M immobilized on a CM5 chip to 150 RU; 2-fold serial diluted VHH at 30 μL/min in HBS-EP+; 25 °C; 1:1 binding model; VHH sample 'origin' without modification or other treatment; conditions: both partners purified

T3 sequence (P02769 25-607): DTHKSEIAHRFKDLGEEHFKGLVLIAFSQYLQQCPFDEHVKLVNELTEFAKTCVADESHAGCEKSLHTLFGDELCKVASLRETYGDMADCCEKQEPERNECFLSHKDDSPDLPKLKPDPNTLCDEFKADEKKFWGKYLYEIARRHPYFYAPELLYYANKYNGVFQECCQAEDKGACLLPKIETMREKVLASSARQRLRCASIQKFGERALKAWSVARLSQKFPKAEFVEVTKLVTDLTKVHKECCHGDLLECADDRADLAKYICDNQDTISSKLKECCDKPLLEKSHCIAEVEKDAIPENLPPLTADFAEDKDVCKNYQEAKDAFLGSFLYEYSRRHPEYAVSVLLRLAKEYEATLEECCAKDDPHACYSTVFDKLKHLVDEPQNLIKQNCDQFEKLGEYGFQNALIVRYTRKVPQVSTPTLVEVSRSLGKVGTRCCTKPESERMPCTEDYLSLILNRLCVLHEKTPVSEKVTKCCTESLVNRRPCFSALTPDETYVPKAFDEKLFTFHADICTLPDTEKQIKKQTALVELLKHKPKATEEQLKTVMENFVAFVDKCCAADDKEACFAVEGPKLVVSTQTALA

B10: NB-1 (VHH)
VHH: QVQLVESGGGLVQAGGSLRLSCAASGSTLDSYYIGWFRQAPGKEREGVSCISSSGNSIRYVDSVKDRFTISRDNGKNTAYLHINSLRPEDTAVYYCAASRRGRKPGLPCSLVRERYAYWGQGTQVTVSS
notes: VHH domain of NB-1; flexible (G4S)4 linker between the VHH domain and the His6 tag, written out from '(G4S)4'; VHH-(G4S)4-His6; Template of the homology model: PDB 4KDT (GMQE 0.99). 'Origin' = no treatment; '0' = negative control, all physical steps of the modification without NHS-Fluo; also called NB-1-Origin; NB-1-0; source: E. coli SHuffle T7, purified (HisTrap HP)
koff [1]: 0.00669 s⁻¹
kon [1]: 48500 M⁻¹ s⁻¹
Kd [2]: 61.8 nM
koff [2]: 0.00614 s⁻¹
kon [2]: 99300 M⁻¹ s⁻¹

B12: NB-1 modified with 5 times of NHS-Fluo (VHH)
VHH: B10 VHH
notes: as the VHH domain of Dm2; flexible (G4S)4 linker between the VHH domain and the His6 tag, written out from '(G4S)4'; A mixture of isomers with different numbers and places of fluorescein; also called NB-1-5; source: E. coli SHuffle T7, purified (HisTrap HP), modified with NHS-Fluo, ultrafiltration
Kd [1]: 202 nM
koff [1]: 0.00843 s⁻¹
kon [1]: 41800 M⁻¹ s⁻¹

B13: NB-1 modified with 20 times of NHS-Fluo (VHH)
VHH: B10 VHH
notes: as the VHH domain of Dm2; flexible (G4S)4 linker between the VHH domain and the His6 tag, written out from '(G4S)4'; also called NB-1-20; labeled NB-1; source: E. coli SHuffle T7, purified (HisTrap HP), modified with NHS-Fluo, ultrafiltration
koff [1]: 0.00863 s⁻¹
kon [1]: 29000 M⁻¹ s⁻¹

B14: NB-1 (anti-β2M VHH, unmodified), VHH-(G4S)4-His6 (VHH)
VHH: B10 VHH
notes: VHH domain of NB-1; flexible (G4S)4 linker between the VHH domain and the 6xHis-tag, written out from the printed formula; Homology model built on template PDB 4KDT (GMQE 0.99); also called NB-1-origin; NB-1-0; source: E. coli SHuffle T7, purified (HisTrap HP)
Kd [3]: 138 nM
Kd [8]: 60 nM

B15: NB-1 modified with 1 time of NHS-Fluo (VHH)
VHH: B10 VHH
notes: as the VHH domain of Dm2; flexible (G4S)4 linker between the VHH domain and the His6 tag, written out from '(G4S)4'; A mixture of isomers with different numbers and places of fluorescein, unmodified VHH among them; also called NB-1-1; source: E. coli SHuffle T7, purified (HisTrap HP), modified with NHS-Fluo, ultrafiltration
Kd [1]: 177 nM
koff [1]: 0.00761 s⁻¹
kon [1]: 43000 M⁻¹ s⁻¹

B16: NB-2 (VHH)
VHH: QVQLVESGGGLVQHGGSLRLSCAASGSAFSTYSMTWHRQAPGKGREWVAGVDRSNSDTNYADSVKGRFTIYRDNAQNTVYLRMNSLKPEDTAVYYCSAERLDGSVRREYWGQGTQVTVSS
notes: VHH domain of NB-2; flexible (G4S)4 linker between the VHH domain and the His6 tag, written out from '(G4S)4'; VHH-(G4S)4-His6; Template of the homology model: PDB 5IML (GMQE 0.92). 'Origin' = no treatment; '0' = negative control; also called NB-2-Origin; NB-2-0; source: E. coli SHuffle T7, purified (HisTrap HP)
koff [1]: 0.00257 s⁻¹
kon [1]: 3540 M⁻¹ s⁻¹
Kd [2]: 356 nM
koff [2]: 0.00218 s⁻¹
kon [2]: 6120 M⁻¹ s⁻¹

B17: NB-2 (anti-β2M VHH, unmodified), VHH-(G4S)4-His6 (VHH)
VHH: B16 VHH
notes: VHH domain of NB-2; flexible (G4S)4 linker between the VHH domain and the 6xHis-tag, written out from the printed formula; Homology model built on template PDB 5IML (GMQE 0.92), a template only; also called NB-2-origin; NB-2-0; source: E. coli SHuffle T7, purified (HisTrap HP)
Kd [3]: 726 nM
fold increase of KD against the sample without any treatment [3]: ~2 fold

B18: NB-2 modified with 1 time of NHS-Fluo (VHH)
VHH: B16 VHH
notes: as the VHH domain of Dm6; flexible (G4S)4 linker between the VHH domain and the His6 tag, written out from '(G4S)4'; A mixture of isomers with different numbers and places of fluorescein; also called NB-2-1; source: E. coli SHuffle T7, purified (HisTrap HP), modified with NHS-Fluo, ultrafiltration
Kd [1]: 2530 nM
koff [1]: 0.00403 s⁻¹
kon [1]: 1600 M⁻¹ s⁻¹

B19: NB-2 modified with 5 times of NHS-Fluo (VHH)
VHH: B16 VHH
notes: as the VHH domain of Dm6; flexible (G4S)4 linker between the VHH domain and the His6 tag, written out from '(G4S)4'; A mixture of isomers with different numbers and places of fluorescein; also called NB-2-5; source: E. coli SHuffle T7, purified (HisTrap HP), modified with NHS-Fluo, ultrafiltration
Kd [1]: 9370 nM
koff [1]: 0.00554 s⁻¹
kon [1]: 591 M⁻¹ s⁻¹

B20: NB-2 modified by a 20 fold amount of NHS-Fluo (VHH)
VHH: B16 VHH
notes: VHH domain as in m4 (NB-2); flexible (G4S)4 linker between the VHH domain and the 6xHis-tag, written out from the printed formula; Heterogeneous product of random amino modification; also called modified NB-2; NB-2 20:1; source: E. coli SHuffle T7, purified (HisTrap HP), then modified with NHS-Fluo (2 h, 4 °C), ultrafiltration
Kd [3]: 42300 nM

B21: NB-2 modified with 20 times of NHS-Fluo (VHH)
VHH: B16 VHH
notes: as the VHH domain of Dm6; flexible (G4S)4 linker between the VHH domain and the His6 tag, written out from '(G4S)4'; A mixture of isomers with different numbers and places of fluorescein; also called NB-2-20; source: E. coli SHuffle T7, purified (HisTrap HP), modified with NHS-Fluo, ultrafiltration
koff [1]: 0.00328 s⁻¹
kon [1]: 77.4 M⁻¹ s⁻¹

Results, then the binder that gave them:

koff [1]: 0.00165 s⁻¹
kon [1]: 1310 M⁻¹ s⁻¹
Kd [2]: 525 nM
koff [2]: 0.00154 s⁻¹
kon [2]: 2940 M⁻¹ s⁻¹
B1: NB-3 (VHH)
VHH: QVQLVESGGGLVQPGGSLRLSCAASGFSLDYYAIGWFRQAPGKEREGVSCISSSDDSTYYAGSVKGRFKISRDNAKSTVYLQMNSLKPEDSAVYYCAALHSGNYYYTPSYICDAEMDYWGKGTLVTVSS
notes: VHH domain of NB-3; flexible (G4S)4 linker between the VHH domain and the His6 tag, written out from '(G4S)4'; VHH-(G4S)4-His6; Template of the homology model: PDB 5J56 (GMQE 0.93). 'Origin' = no treatment; '0' = negative control; also called NB-3-Origin; NB-3-0; source: E. coli SHuffle T7, purified (HisTrap HP)

Kd [1]: 6620 nM
koff [1]: 0.00369 s⁻¹
kon [1]: 558 M⁻¹ s⁻¹
B2: NB-3 modified with 5 times of NHS-Fluo (VHH)
VHH: B1 VHH
notes: as the VHH domain of Dm10; flexible (G4S)4 linker between the VHH domain and the His6 tag, written out from '(G4S)4'; A mixture of isomers with different numbers and places of fluorescein; also called NB-3-5; source: E. coli SHuffle T7, purified (HisTrap HP), modified with NHS-Fluo, ultrafiltration

Kd [3]: 1260 nM
fold increase of KD against the sample without any treatment [3]: ~2 fold
B3: NB-3 (anti-β2M VHH, unmodified), VHH-(G4S)4-His6 (VHH)
VHH: B1 VHH
notes: VHH domain of NB-3; flexible (G4S)4 linker between the VHH domain and the 6xHis-tag, written out from the printed formula; Homology model built on template PDB 5J56 (GMQE 0.93), a template only; also called NB-3-origin; NB-3-0; source: E. coli SHuffle T7, purified (HisTrap HP)

koff [1]: 0.00402 s⁻¹
kon [1]: 286 M⁻¹ s⁻¹
B4: NB-3 modified with 20 times of NHS-Fluo (VHH)
VHH: B1 VHH
notes: as the VHH domain of Dm10; flexible (G4S)4 linker between the VHH domain and the His6 tag, written out from '(G4S)4'; A mixture of isomers with different numbers and places of fluorescein; also called NB-3-20; source: E. coli SHuffle T7, purified (HisTrap HP), modified with NHS-Fluo, ultrafiltration

Kd [3]: 14100 nM
B5: NB-3 modified by a 20 fold amount of NHS-Fluo (VHH)
VHH: B1 VHH
notes: VHH domain as in m6 (NB-3); flexible (G4S)4 linker between the VHH domain and the 6xHis-tag, written out from the printed formula; Heterogeneous product of random amino modification; also called modified NB-3; NB-3 20:1; source: E. coli SHuffle T7, purified (HisTrap HP), then modified with NHS-Fluo (2 h, 4 °C), ultrafiltration

Kd [1]: 3490 nM
koff [1]: 0.00297 s⁻¹
kon [1]: 849 M⁻¹ s⁻¹
B6: NB-3 modified with 1 time of NHS-Fluo (VHH)
VHH: B1 VHH
notes: as the VHH domain of Dm10; flexible (G4S)4 linker between the VHH domain and the His6 tag, written out from '(G4S)4'; A mixture of isomers with different numbers and places of fluorescein; also called NB-3-1; source: E. coli SHuffle T7, purified (HisTrap HP), modified with NHS-Fluo, ultrafiltration

Kd [4]: 26200 nM
koff [4]: 0.00315 s⁻¹
kon [4]: 120 M⁻¹ s⁻¹
B7: NB-4 modified with 1 time of NHS-Fluo (VHH)
VHH: QVQLVESGGGLVEPGGSVRLSCAVSGNIVSISTVGWYRQAPGKQRELVASITGGGTTNYGDFVNGRFSIYRDNAPNRVYLHMSTLRPDDTAVYYCNARAGGSGSGSDPYDYWGVGTQVTVSS

fold increase of KD against the sample without any treatment [3]: ~2 fold
B8: NB-4 (anti-β2M VHH, unmodified), VHH-(G4S)4-His6 (VHH)
VHH: B7 VHH
notes: VHH domain of NB-4; flexible (G4S)4 linker between the VHH domain and the 6xHis-tag, written out from the printed formula; Homology model built on template PDB 5IMK (GMQE 0.85), a template only; also called NB-4-origin; NB-4-0; source: E. coli SHuffle T7, purified (HisTrap HP)

Kd [5]: 536 nM
koff [5]: 0.003 s⁻¹
kon [5]: 5600 M⁻¹ s⁻¹
Kd [6]: 289 nM
koff [6]: 0.0028 s⁻¹
kon [6]: 9700 M⁻¹ s⁻¹
B9: NB-4 (VHH)
VHH: B7 VHH
notes: VHH domain of NB-4; flexible (G4S)4 linker between the VHH domain and the His6 tag, written out from '(G4S)4'; VHH-(G4S)4-His6; Template of the homology model: PDB 5IMK (GMQE 0.85). 'Origin' = no treatment; '0' = negative control; also called NB-4-Origin; NB-4-0; source: E. coli SHuffle T7, purified (HisTrap HP)

binding result [7]: no binding (tested: 10 μg/mL)
Kd [3]: 297 nM
B11: NB-1 modified by a 20 fold amount of NHS-Fluo (VHH)
VHH: B10 VHH
notes: VHH domain as in m2 (NB-1); flexible (G4S)4 linker between the VHH domain and the 6xHis-tag, written out from the printed formula; also called labeled NB-1; modified NB-1; source: E. coli SHuffle T7, purified (HisTrap HP), then modified with NHS-Fluo (2 h, 4 °C), ultrafiltration
